Source: patent US20110223176A1 (AbbVie / Abbott, published 2011)

Legend:
[1] = target: T1, human BSG2 (basigin isoform 2) on the cell surface (human, UniProt P35613 140-385); test: flow cytometry (FACS) on BAF3 cells expressing human BSG2
T1 construct: Presented on stably transfected BAF3 cells or endogenously on human tumor cell lines (HepG2, MiaPaCa-2, DoHH-2); also called hBSG2; CD147
T1 sequence: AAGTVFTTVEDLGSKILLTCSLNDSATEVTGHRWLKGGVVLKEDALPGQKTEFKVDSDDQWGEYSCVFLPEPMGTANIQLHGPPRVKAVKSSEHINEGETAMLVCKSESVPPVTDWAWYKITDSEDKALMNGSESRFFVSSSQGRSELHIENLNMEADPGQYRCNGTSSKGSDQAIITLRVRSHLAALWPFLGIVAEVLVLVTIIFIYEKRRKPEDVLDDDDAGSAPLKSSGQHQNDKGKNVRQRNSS
Experimental: (§1) Stable cell lines overexpressing cell-surface BSG2 or human tumor cell lines were harvested from tissue culture flasks, washed three times and resuspended in phosphate buffered saline (PBS) containing 1% bovine serum albumin and 1 mM CaCl₂ (FACS buffer). 5×10⁵ cells were incubated with antibodies at various concentrations in FACS buffer for 60 minutes on ice. Cells were washed twice and the bound murine monoclonal antibody was detected with a goat Fab′2 anti-mouse IgM+IgG+IgA (H+L) R-phycoerythrin-conjugated antibody (Southern Biotechnology Associates, Inc., Birmingham, Ala., Catalog No. 1012-08) diluted 1:500. Following incubation on ice (4° C., 60 minutes), cells were washed three times and resuspended in FACS buffer. Fluorescence was measured using a Becton Dickinson FACSCalibur-HTS (Becton Dickinson, San Jose, Calif., US). Data were analyzed using Graphpad Prism software and EC₅₀ values were reported as the concentration of antibody to achieve 50% of maximal BSG2 antibodies binding to BSG2 expressing cells.

[2] = target: T2, cynomolgus monkey BSG2 on the cell surface (cynomolgus monkey); test: flow cytometry (FACS) on BAF3 cells expressing cynomolgus BSG2
T2 construct: whole, on cells; also called BAF3-cyno BSG2; Cyno BSG2
Experimental: as §1

[3] = target: T1, human BSG2 (basigin isoform 2) on the …; test: cell-based ECL (MSD) binding on whole cells expressing human BSG2
[4] = target: T3, purified recombinant human BSG2 extracellular domain (human, UniProt P35613 22-325); test: SPR (Biacore), mAb captured by anti-mouse Fc, BSG2 ECD injected, 25 C
T3 construct: also called Human BSG2 ECD
T3 sequence: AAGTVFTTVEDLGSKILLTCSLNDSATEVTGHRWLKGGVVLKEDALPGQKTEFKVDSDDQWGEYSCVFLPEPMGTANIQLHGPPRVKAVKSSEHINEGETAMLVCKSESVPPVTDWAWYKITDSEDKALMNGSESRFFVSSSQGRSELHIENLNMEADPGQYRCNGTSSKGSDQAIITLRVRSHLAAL
Experimental: (§2) Binding of BSG2 antibodies to a purified recombinant BSG2 extracellular domain (ECD) was determined by surface plasmon resonance-based measurements with a Biacore® instrument (either a Biacore 2000, Biacore 3000, or Biacore T100; GE Healthcare, Piscataway, N.J., US). The assay format for mAb affinity analysis was Fc-based capture via immobilized anti-Fc IgG. A standard amine coupling protocol was employed to immobilize Fc-specific IgG via primary amines to the carboxy-methyl (CM) dextran surface of CMS sensorchips. For the study of mouse anti-human BSG2 mAbs, anti-mouse Fc was used as the immobilized capture reagent. An automated protocol, available on the Biacore 2000, was used to immobilize 8000-10000RU of capture reagent in all 4 flowcells of the sensorchip. Binding was recorded as a function of time and kinetic rate constants were calculated. In this assay, on-rates as fast as 10⁷M⁻¹ s⁻¹ and off-rates as slow as 10⁻⁵ s⁻¹ can be measured.
(§3) Briefly, the CM-dextran surfaces were activated by freshly prepared 1:1 […] 3-(N,N-dimethylamino)propyl-N-ethylcarbodiimide (EDC). Then the anti-Fc IgG capture reagent (20 μg/ml in 10 mM sodium acetate, pH 4.5) was applied to the surface followed by deactivation of the surface and blocking of the residual reactive sites with 1M ethanolamine (pH 8.5). The running buffer employed was PBS-PB [1×PBS (Sigma P3813), pH 7.4, 0.005% P20 surfactant, 0.1 mg/ml BSA (Sigma-A7906)] and the assay temperature was 25° C. All reagents were diluted into running buffer to the specified concentrations. Each experimental cycle consisted of the following steps: (1) anti-BSG2 mAbs at 0.5 to 1 μg/ml were captured in flowcells 2, 3 or 4 to a level of 100-120RU. All measurements were referenced against flowcell 1 which had no captured anti-BSG2 mAb; (2) human BSG2 ECD was injected through all 4 flowcells, 240 μl at 80 μl/min. After the antigen injection, dissociation was monitored for 600 seconds at 80 μl/min; and (3) the anti-Fc capture surface was regenerated with 10 mM glycine, pH 1.5.
(§4) The BSG2 antibody binding affinities were determined by the BIACORE technology as described in Example 1.2. Table 10 represents the antibody binding kinetics against human and cynomolgus monkey BSG2 extracellular domain (ECD).

[5] = target: T4, cynomolgus monkey BSG2 extracellular domain (cynomolgus monkey); test: as above
T4 construct: extracellular domain; also called Cynomolgus BSG2 ECD
Experimental: as §2, §3, §4

[6] = target: T2, cynomolgus monkey BSG2 on the cell …; test: cell-based ECL (MSD) binding on whole cells expressing cynomolgus BSG2
Experimental: Cells were plated at 25,000 cells/well in 25 μl PBS using 96 well MSD high binding plates (MSD, catalogue no. L11XB-3), and incubated at 37° C. for 1 hour. 25 μl/well of blocking solution (30% serum in PBS) was added to the plates for 30 minutes at room temperature with mild agitation. Plates were then incubated with 25 μl/well of BSG2 antibodies (10 μg/ml) diluted in assay buffer (10% serum in PBS) for 1 hour at room temperature with mild agitation, and then washed 3× with PBS. Goat anti-mouse or anti-human IgG sulfotag was added at 1 μg/ml for 1 hour with mild agitation, and plates were washed 3× with PBS. After the final wash, plates were incubated with 2×MSD surfactant-free read buffer (catalogue no. R92TD-2) and the signal was detected on a MSD SECTOR Imager 6000. Data were analyzed using Graphpad Prism software and EC₅₀ values were reported.
(§5) BSG2 antibody binding activities against whole cells expressing human or cynomolgus monkey BSG2 were assessed by ECL using MSD technology (described in Example 1.3) and the receptor binding assay (described in Example 1.4) and are shown in Table 11.

[7] = target: T1, human BSG2 (basigin isoform 2) on the …; test: receptor binding assay, Eu-labeled antibody on cells expressing human BSG2
Experimental: Cell lines expressing BSG2 were harvested and washed once in assay buffer (PBS, 0.1% BSA, 0.02% Na Azide, 10 mM EDTA) and resuspended to 5×10⁶ cells per mL. Serial 1:2 dilutions of ⁺³Eu-labeled anti-BSG2 antibody stock in assay buffer were made for final concentrations ranging from 1.6×10⁻⁸-7.7×10⁻¹² M, and a 4 mg/mL solution of unlabeled anti-BSG2 antibody was also prepared. To 96 well round bottom plates, 25 μl of ⁺³Eu-labeled antibody dilutions were added to 25 μl buffer (total counts), or 25 μl of unlabeled antibody were added to 25 μl buffer (background counts). 50 μl of cells at 2.5×10⁵ cells per well were then added to all samples, mixed gently, and incubated on ice for 1 hour. Cell bound antibody was then separated from unbound antibody by transferring 20 μL of the reaction mixture to Acrowell 96 well filter plates (Pall PN 5020), centrifuged for 5 min (2200 rpm), washed 3× with 150 μL cold assay buffer, and centrifuged for 5 min. Signal was determined by incubating samples with 150 μL/well of enhancement buffer and read using Envision. The specific counts were determined by subtracting the background counts (cells+labeled antibody+excess cold antibody) from the corresponding total counts (cells+labeled antibody) for each antibody concentration. The labeled antibody concentration versus total counts was analyzed using Graphpad Prism 4 to calculate Kd and Bmax values.
as §5

[8] = target: T1, human BSG2 (basigin isoform 2) on the …; test: flow cytometry (FACS) on HepG2 hepatocellular carcinoma cells (cell-surface BSG2)
Experimental: as §1

EC50 [1]: 0.2 nM
EC50 [2]: 0.71 nM
EC50 [3]: 0.4 nM
Kd [4]: 2.5 nM
koff [4]: 0.001 s⁻¹
kon [4]: 400000 M⁻¹ s⁻¹
Kd [5]: 1600 nM
koff [5]: 0.6 s⁻¹
kon [5]: 377000 M⁻¹ s⁻¹
EC50 [6]: 16 nM
Kd [7]: 0.4 nM
EC50 [8]: 0.17 nM
B1: mouse anti-human BSG2 monoclonal antibody EB41-1F4-2C1 (antibody, mouse IgG1, V domains shown)
VH: EVKLEESGGGLVQPGGSMKLSCVASGFTFSNFWMDWVRQSPEKGLEWVAEIRLKSTNYATHYAESVKGRFTISRDDSKSSVYLQMNNLRAEDTGIYYCTATSTGYWGQGTTLTVSS
VL: SIVMTQSPKILLVSAGDRVTITCKASQSVSNDVAWYQQKPGQSPKLLIYYASNRYTGVPDRFTGSGYGTDFTFTISTVQAEDLAVYFCQQDYSSPYTFGGGTKLEIK
notes: Hybridoma antibody, mouse IgG1/kappa
